Data set [1] is described as follows: FB2 deamination by purified recombinant AnFAO, reverse-phase LC/MS. Type of data set: biochemical. The following applies: 6 nM enzyme, 1 μM FB2, 0.1 mg/ml catalase, 1 h at 37° C.
Protocol: In particular, all MS data were collected with a Q-Exactive™ Quadrupole Orbitrap™ mass spectrometer (Thermo Scientific, MA, USA) coupled to an Agilent 1290 ultra-high-performance liquid chromatography (UHPLC) system. Fumonisins were resolved on a Zorbax™ Eclipse Plus Rapid Resolution High Definition (RRHD) C18 column (2.1×50 mm, 1.8 μm; Agilent Technologies, CA, USA), maintained at 35° C. The mobile phase was comprised of water with 0.1% formic acid (A), and acetonitrile with 0.1% formic acid (B) (Optima grade, Fisher Scientific, NJ, USA). The gradient consisted of 0% B for 0.5 min before increasing to 100% over 3 min, held at 100% for 2.5 min and reduced to 0% over 0.5 min. The fumonisins were detected in negative ionization mode using the following electrospray conditions: capillary voltage, 4.0 kV; capillary temperature, 400° C.; sheath gas, 17.00 units; auxiliary gas, 8.00 units; probe heater temperature, 450° C.; S Lens RF level, 45.00. […] The five highest intensity ions from the full scan (excluding isotopes) were sequentially selected using a 1.2 m/z isolation window and analyzed at a resolution of 17,500; AGC target, 1×10^5; max IT, 64 ms; normalized collision energy (NCE) 30; threshold intensity 9.1×10^4; and dynamic exclusion of 1.5 s. Fumonisins were detected by accurate mass (±5 ppm) and retention time (±0.1 min) and verified by MS/MS. […]
Data set [2] is described as follows: Fumonisin deamination activity of AnFAO with or without excess FAD. Type of data set: biochemical. Particulars: enzyme dialyzed in 20 mM MES (pH 6), 150 mM NaCl with additional 50 μM FAD. The text has this:
The whole mass of AnFAO following denaturation and LC-MS analysis was 51,320.70 Da, which matches the predicted mass of the apo-enzyme (51,320.97 Da) as shown in FIG. 12D. […] AnFAO also lacked the requisite Histidine or Tyrosine residues for covalent 6α-linkages to the FAD backbone, as observed in other covalent flavoproteins (Heuts et al., 2009).

Data set [3] in a line: Effect of temperature on fumonisin deamination activity, reverse-phase LC/MS. The following applies: 6 nM enzyme. Type of data set: biochemical. As for the experimental part:
(§1) Activity was measured via reverse-phase LC/MS analysis. […] All proteins were scanned at a concentration of 0.3 mg/ml in buffer containing 20 mM Tris-HCl (pH 7.4), 50 mM NaCl and 0.75 mM DTT. Thermal denaturation was monitored at […] with a temperature scan ranging from 20 to 95° C., increasing by 1° C. per minute with data collection every 30 seconds. Baseline corrected data were converted from millidegrees to mean residue ellipticity, and thermal denaturation curves were produced by nonlinear regression in Graphpad Prism.

A short description of data set [4]: Circular dichroism thermal denaturation. Type of data set: physicochemical. The following applies: 0.3 mg/ml, 20 mM Tris-HCl (pH 7.4), 50 mM NaCl, 0.75 mM DTT, monitored at 222, 20 to 95° C. The procedure: as §1
On the technique in general: CD spectra are sensitive to the conformation of chiral molecules.

How the values of data set [5] were obtained: (§2) 98 μL of this solution was added to 2 μL of a stock of FB2 in a microfuge tube (2.5 mM) and incubated at 30° C. for 30 mins. At the end of the incubation time, 20 μL of the reaction was diluted with 80 μL of 50 mM HEPES pH 7.0, 150 mM NaCl and 100 μL of this was added in triplicate to wells of a 96-well microplate. 100 μL of Amplex™ red reaction buffer consisting of 50 mM HEPES pH 7.0, 150 mM NaCl, 200 μM Amplex™ red, 2 U/ml horseradish peroxidase was immediately added to each well and absorbance was measured at 571 nm. Rates were calculated based on an H2O2 standard curve and the incubation time taking into account the dilution factors. […] 100 μL of protein sample was added to wells in triplicate in a 96-well microplate. 100 μL of Amplex™ red reaction buffer consisting of 50 mM HEPES pH 7.0, 200 μM Amplex™ red, 2 U/ml horseradish peroxidase and 50 μM FB2 was then added to each well and absorbance was monitored at 571 nm every 10 mins for 1 hr. A standard curve consisting of 0-10 μM H2O2 was included to determine the absorbance for every pmol of H2O2 generated by the reaction.

Data set [6] is described as follows: NaCl dependence of fumonisin deamination activity, Amplex red. Type of data set: biochemical. As for the experimental part: as §2
For data set [7] the following is noted: 1 μM enzyme, room temperature, 16 h, corn material in water. As for the experimental part:
Following incubation, 700 μls of extraction solution (78% acetonitrile, 2% ethyl acetate) was added to each sample and incubated at 37° C. with shaking for 45 minutes. This mixture was then centrifuged at 20,000×g and 400 μls of the cleared supernatant was mixed with an equal volume of 50% methanol. Samples were then analyzed for fumonisin contamination by reverse phase HPLC-MS as previously described.

Data set [8] can be described thus: Ethanol tolerance of deamination activity, reverse phase LC/MS.
A short description of data set [9]: Amplex red assay of RID+AO enzyme. Type of data set: biochemical. Particulars: 80 nM enzyme, 25 μM FB1, 50 mM HEPES (pH 7), 150 mM NaCl.

Read-outs that look alike come from different tables or passages of the source.

B1: AnFAO_15309 (protein)
chain: MSVSNDPTTKLYDAVIVGAGLSGLQAAHSIQAAGFSVCILEATDRMGGKTLTVKSSEKGYNDLGAAWVNDTNQTEIFKLHQRYGLDGVVQYTCGDDILESGEGVIRKIPYGLPLTGLPKKLLDILRIESSRLDLDDPTSFPGATEVDNLTFRDFCVEKTGSEDVIHITDAISTALLGLNSNELSALYMLYYFKSGSGIDNLLSDERDGAQYLRTRQGTQTIARKMADELTQSDIFLGMPVTSINQTDADAHCVVQTLDGSSFRCRRVIVSIPTTLYRSVSFHPPLPHAKQVLSDHTIMGYYSKVIFIFKEPWWRDAGLTGIVNCAGGPITFTRDTSVPTDDQWSITCFMVGSRGRAWSKLSKDDRYSQVWEQFRRCFEEFVENIPEPVNTLEMEWSKEPYFLGAPCPAMIPGLLTTAGSDLAAPHGKVHFIGTETSTVWRGYMEGAIRAGQRGGAEVVTALQED
modifications: codon-optimized; AnFAO_15309 codon optimized for Saccharomyces cerevisiae
With B1, in data set [1], the “conversion of FB2 into FPy2” value is reported as “Full conversion”. The “change in fumonisin deamination activity with additional FAD” value in [2] is listed as “No difference”. In addition, the “optimal temperature of FB2 deamination” value in [3] (2 μM FB2) was 50 °C. The “of maximal activity at 21° C.” value in data set [3] (2 μM FB2, 21° C.) is reported as “ca. 35%”. Besides, in data set [3] (2 μM FB2, 60° C.), the “of maximal activity at 60° C.” value came to 52%. In data set [3] (2 μM FB2, 95° C.), the “activity at 95° C.” value is “No activity”. The same molecule displayed a melting temperature in data set [4] of 71 °C. The “optimal pH of activity” value in data set [5] (300 nM enzyme, FB2, 30° C., 30 mins) came out at 6. Also, the “activity remaining at pH 3.5” value in data set [5] (Citrate pH 3.5) is reported as “ca. 20%”. In addition, the “activity remaining at pH 9.0” value in data set [5] (Pyrophosphate pH 9) is given as “ca. 30%”. Further, the “of maximum activity at 0 mM NaCl” value in [6] (0 mM NaCl) came to 70%. For the same molecule, the “NaCl concentration of optimal activity” value in data set [6] (50 mM HEPES pH 7.0, FB2) was 50 mM. The “of maximum activity at 1 M NaCl” value in [6] (1 M NaCl) was 66%. Moreover, the results for the “intact fumonisins remaining after treatment” value in data set [7] and in data set [7] (listed as AnFAO) were “no intact fumonisins remained” and “No intact fumonisin remained”, respectively. Besides, in [8] (10 nM enzyme, 1 μM FB2, 30 minutes at 37° C., 5% EtOH), the “activity remaining at 5% EtOH” value came out at 71%. Moreover, the “activity remaining at 10% EtOH” value in data set [8] (10 nM enzyme, 1 μM FB2, 30 minutes at 37° C., 10% EtOH) is 43%. The “activity remaining at 20% EtOH” value in data set [8] (10 nM enzyme, 1 μM FB2, 30 minutes at 37° C., 20% EtOH) worked out at 12%. The “deamination activity at 30% EtOH” value in data set [8] (30% EtOH) was “Negligible amounts”. In addition, in [8] (40% EtOH), the “deamination activity at 40% EtOH” value is “Negligible amounts”.

B2: RID+AO: GST-tagged 597 amino acid A. niger enzyme with N-terminal Reactive Intermediate Deaminase domain and C-terminal amine oxidase domain (protein)
chain: MAPAPVLATSAYYAPGVVSSASKYLHVSGQPGTIEGTAPADYNSQIHLALVNLHRVLAATGATPRDVVKLTLYIVDYDPNNRLHTRPLQTWLAGHKPAITLVPVPQLAVPDWKFEIEATVAVPDSIPASLSLPSPTETTDVLVIGAGLSGLMAAETTLQSGHSCIVLEGRDRVGGKTWTCPLPSGTGVVDLGAAWINDTNQSMMYELARRAGADLIEQNTTGNCLLQREDGAITAFPYGQTPCITPQIVKEIEAIRDTAEQDCQSFSTSRPQSPALDSLSFLAYLHSRNASPIAAANASVWTRAMLGQEPQDISALYFLNYCKSGGGLLQMRSDRKHGAQYLRVRQGTQIFAKTLAESLPTDTIRFGQRVVGITQVQKGVNYVQTESGLVVKARKVICSVPTPVLKTIKFEPQLPAAKQLLVDSFRYGYYTKVMLSFRTAWWADRGFCGLAQSFVGPASIYRDTSSPEDGKWVLTAFLAGDAGRNWSALGSQRERELALLEQLGAIYGDKDLPKREFVEALGHEWSTEELSGWGCPCPALPPGVLTLAGDALREPFRDVHFVGTETAEEWKGYMEGAVRSGKRGAAEAVKGLTRSQL
modifications: GST tag; Aspergillus niger
Regarding B2, the activity towards fumonisins result in data set [9] is recorded as “no activity”.
